Tests used:
[1] = target: T1, HbA1c-type αF8P (α-fructosyl-valyl-histidyl-leucyl-threonyl-prolyl-glutamyl-glutamyl-lysine)
T1 chain: VHLTPEEK

[2] = target: T2, HbS1c-type αF8P
T2 chain: VHLTPVEK

[3] = target: T3, HbC1c-type αF8P
T3 chain: VHLTPKEK

Row | Protein | relative activity on substrate (reference, designated as 100%) [1] [%] | relative activity (HbS1c/HbA1c), fold over En42FX before modification [2] | relative activity on substrate (activity on HbA1c-type αF8P = 100%) [2] [%] | relative activity on substrate (activity on HbA1c-type αF8P = 100%) [3] [%] | relative activity (HbS1c/HbA1c), fold over H40-3M before modification [2]
1 | En42FX R108L (protein) MAPRANTKIIVVGGGGTMGSSTALHLLRAGYTPSNITVLDTYPIPSAQSAGYDLNKIFGISGANKHDLQLSLEAFDMWKNDPLFKPFFHNVGQMDVSSTEEGIKRLRLRYQSLLRAGIGLEKTNFLLESEDEILAKAPHFTREQIKGWKGLFCGDGGWLAAAKAINAIGQFLKEQGVKFGFGEAGTFKKPLFADADEKTCIGVETVDGTKYYADKVVLAAGAWSSTLVDLEEQCVSKAWVFAHIQLTPAEAAAYKNTPVIYDGDYGFFIEPDENGIIKVCDEFPGFTHFKMHQPYGSPVPKLISVPRSHAKHPTDTYPHASEVTIKKAINRFLPRFNDKELFNRAMCWCTDTADSNLLVCEHPRWKGFYLATGDSGHSFKLLPNIGKHVVELLEGRLESVFKDAWRWRPGSGDALKSRRAAPAKDLADMPGWRNEAKM | 100 | improved by about 1.4 to 3.7 times | 150 | 13 | 
2 | En42FX R108D (protein) MAPRANTKIIVVGGGGTMGSSTALHLLRAGYTPSNITVLDTYPIPSAQSAGYDLNKIFGISGANKHDLQLSLEAFDMWKNDPLFKPFFHNVGQMDVSSTEEGIKRLRDRYQSLLRAGIGLEKTNFLLESEDEILAKAPHFTREQIKGWKGLFCGDGGWLAAAKAINAIGQFLKEQGVKFGFGEAGTFKKPLFADADEKTCIGVETVDGTKYYADKVVLAAGAWSSTLVDLEEQCVSKAWVFAHIQLTPAEAAAYKNTPVIYDGDYGFFIEPDENGIIKVCDEFPGFTHFKMHQPYGSPVPKLISVPRSHAKHPTDTYPHASEVTIKKAINRFLPRFNDKELFNRAMCWCTDTADSNLLVCEHPRWKGFYLATGDSGHSFKLLPNIGKHVVELLEGRLESVFKDAWRWRPGSGDALKSRRAAPAKDLADMPGWRNEAKM | 100 |  | 95 | 23 | 
3 | En42FX R108Q (protein) MAPRANTKIIVVGGGGTMGSSTALHLLRAGYTPSNITVLDTYPIPSAQSAGYDLNKIFGISGANKHDLQLSLEAFDMWKNDPLFKPFFHNVGQMDVSSTEEGIKRLRQRYQSLLRAGIGLEKTNFLLESEDEILAKAPHFTREQIKGWKGLFCGDGGWLAAAKAINAIGQFLKEQGVKFGFGEAGTFKKPLFADADEKTCIGVETVDGTKYYADKVVLAAGAWSSTLVDLEEQCVSKAWVFAHIQLTPAEAAAYKNTPVIYDGDYGFFIEPDENGIIKVCDEFPGFTHFKMHQPYGSPVPKLISVPRSHAKHPTDTYPHASEVTIKKAINRFLPRFNDKELFNRAMCWCTDTADSNLLVCEHPRWKGFYLATGDSGHSFKLLPNIGKHVVELLEGRLESVFKDAWRWRPGSGDALKSRRAAPAKDLADMPGWRNEAKM | 100 |  | 67 | 15 | 
4 | En42FX S112E (protein) MAPRANTKIIVVGGGGTMGSSTALHLLRAGYTPSNITVLDTYPIPSAQSAGYDLNKIFGISGANKHDLQLSLEAFDMWKNDPLFKPFFHNVGQMDVSSTEEGIKRLRRRYQELLRAGIGLEKTNFLLESEDEILAKAPHFTREQIKGWKGLFCGDGGWLAAAKAINAIGQFLKEQGVKFGFGEAGTFKKPLFADADEKTCIGVETVDGTKYYADKVVLAAGAWSSTLVDLEEQCVSKAWVFAHIQLTPAEAAAYKNTPVIYDGDYGFFIEPDENGIIKVCDEFPGFTHFKMHQPYGSPVPKLISVPRSHAKHPTDTYPHASEVTIKKAINRFLPRFNDKELFNRAMCWCTDTADSNLLVCEHPRWKGFYLATGDSGHSFKLLPNIGKHVVELLEGRLESVFKDAWRWRPGSGDALKSRRAAPAKDLADMPGWRNEAKM | 100 |  | 82 | 41 | 
5 | En42FX R108E (protein) MAPRANTKIIVVGGGGTMGSSTALHLLRAGYTPSNITVLDTYPIPSAQSAGYDLNKIFGISGANKHDLQLSLEAFDMWKNDPLFKPFFHNVGQMDVSSTEEGIKRLRERYQSLLRAGIGLEKTNFLLESEDEILAKAPHFTREQIKGWKGLFCGDGGWLAAAKAINAIGQFLKEQGVKFGFGEAGTFKKPLFADADEKTCIGVETVDGTKYYADKVVLAAGAWSSTLVDLEEQCVSKAWVFAHIQLTPAEAAAYKNTPVIYDGDYGFFIEPDENGIIKVCDEFPGFTHFKMHQPYGSPVPKLISVPRSHAKHPTDTYPHASEVTIKKAINRFLPRFNDKELFNRAMCWCTDTADSNLLVCEHPRWKGFYLATGDSGHSFKLLPNIGKHVVELLEGRLESVFKDAWRWRPGSGDALKSRRAAPAKDLADMPGWRNEAKM | 100 |  | 100 | 31 | 
6 | En42FX S112D (protein) MAPRANTKIIVVGGGGTMGSSTALHLLRAGYTPSNITVLDTYPIPSAQSAGYDLNKIFGISGANKHDLQLSLEAFDMWKNDPLFKPFFHNVGQMDVSSTEEGIKRLRRRYQDLLRAGIGLEKTNFLLESEDEILAKAPHFTREQIKGWKGLFCGDGGWLAAAKAINAIGQFLKEQGVKFGFGEAGTFKKPLFADADEKTCIGVETVDGTKYYADKVVLAAGAWSSTLVDLEEQCVSKAWVFAHIQLTPAEAAAYKNTPVIYDGDYGFFIEPDENGIIKVCDEFPGFTHFKMHQPYGSPVPKLISVPRSHAKHPTDTYPHASEVTIKKAINRFLPRFNDKELFNRAMCWCTDTADSNLLVCEHPRWKGFYLATGDSGHSFKLLPNIGKHVVELLEGRLESVFKDAWRWRPGSGDALKSRRAAPAKDLADMPGWRNEAKM | 100 |  | 63 | 16 | 
7 | En42FX R105S (protein) MAPRANTKIIVVGGGGTMGSSTALHLLRAGYTPSNITVLDTYPIPSAQSAGYDLNKIFGISGANKHDLQLSLEAFDMWKNDPLFKPFFHNVGQMDVSSTEEGIKSLRRRYQSLLRAGIGLEKTNFLLESEDEILAKAPHFTREQIKGWKGLFCGDGGWLAAAKAINAIGQFLKEQGVKFGFGEAGTFKKPLFADADEKTCIGVETVDGTKYYADKVVLAAGAWSSTLVDLEEQCVSKAWVFAHIQLTPAEAAAYKNTPVIYDGDYGFFIEPDENGIIKVCDEFPGFTHFKMHQPYGSPVPKLISVPRSHAKHPTDTYPHASEVTIKKAINRFLPRFNDKELFNRAMCWCTDTADSNLLVCEHPRWKGFYLATGDSGHSFKLLPNIGKHVVELLEGRLESVFKDAWRWRPGSGDALKSRRAAPAKDLADMPGWRNEAKM | 100 | improved by about 1.4 to 3.7 times | 56 | 13 | 
8 | CFP-T7-H40-3M (protein) MTSNRADTRVIVVGGGGTIGSSTALHLVRSGYAPANITVLDTFEIPSAQSAGHDLNKIMGIDHGNKVNLQMSLEARQMWKEDELFQPFFHNTGRMDCESTPKGIEKLKKYYQKLHDAGAGLEKTHAWLDNEDEILSKMPLLQRDQIQGWKAIWSQDGGWLAAAKAINAIGQFLKERGVKFGFGGAGSFKQPLFDDEGTTCIGVETADGTKYYADKVVLAAGAWSPTLVDLEDQCCSKAWVYAHIQLTPEEAAEYKGVPVVYNSEYGFFFEPDEFGVIKVCNEFPGFSRFKEHQPYGAPSPKRISVPRSHAKHPTDTYPDASEVSIKKAIATFLPRFQDKELFNRALCWCTDTADSTLLMCEHPKWKNFILATGDSGHSFKILPNVGKYVVELIEGRLPEEMAYQWRWRPGGDALKSRRAAPPKDLADMPGWKHDPKL | 100 |  | 39 | 11 | 
9 | CFP-T7-H40-3M K102A (protein) MTSNRADTRVIVVGGGGTIGSSTALHLVRSGYAPANITVLDTFEIPSAQSAGHDLNKIMGIDHGNKVNLQMSLEARQMWKEDELFQPFFHNTGRMDCESTPAGIEKLKKYYQKLHDAGAGLEKTHAWLDNEDEILSKMPLLQRDQIQGWKAIWSQDGGWLAAAKAINAIGQFLKERGVKFGFGGAGSFKQPLFDDEGTTCIGVETADGTKYYADKVVLAAGAWSPTLVDLEDQCCSKAWVYAHIQLTPEEAAEYKGVPVVYNSEYGFFFEPDEFGVIKVCNEFPGFSRFKEHQPYGAPSPKRISVPRSHAKHPTDTYPDASEVSIKKAIATFLPRFQDKELFNRALCWCTDTADSTLLMCEHPKWKNFILATGDSGHSFKILPNVGKYVVELIEGRLPEEMAYQWRWRPGGDALKSRRAAPPKDLADMPGWKHDPKL | 100 |  | 77 |  | about 1.97 times greater than that prior to modification
10 | CFP-T7-H40-3M K102E (protein) MTSNRADTRVIVVGGGGTIGSSTALHLVRSGYAPANITVLDTFEIPSAQSAGHDLNKIMGIDHGNKVNLQMSLEARQMWKEDELFQPFFHNTGRMDCESTPEGIEKLKKYYQKLHDAGAGLEKTHAWLDNEDEILSKMPLLQRDQIQGWKAIWSQDGGWLAAAKAINAIGQFLKERGVKFGFGGAGSFKQPLFDDEGTTCIGVETADGTKYYADKVVLAAGAWSPTLVDLEDQCCSKAWVYAHIQLTPEEAAEYKGVPVVYNSEYGFFFEPDEFGVIKVCNEFPGFSRFKEHQPYGAPSPKRISVPRSHAKHPTDTYPDASEVSIKKAIATFLPRFQDKELFNRALCWCTDTADSTLLMCEHPKWKNFILATGDSGHSFKILPNVGKYVVELIEGRLPEEMAYQWRWRPGGDALKSRRAAPPKDLADMPGWKHDPKL | 100 |  | 68 |  | about 1.74 times greater than that prior to modification
